What all share (assay): SPR; Biacore T200; receptor domains amine-coupled to CM5-S Series chips; analytes 0-20 nM flowed over; 10 mM HEPES, 150 mM NaCl, 3 mM EDTA, 0.05% surfactant P20, pH 7.4; double-referenced; 1:1 Langmuir fit
For orientation: In SPR one partner is held on a chip, and binding of the other changes the refractive index at the surface.

In test [1] the target is p75NTR extracellular domain (p75NTR ECD) (UniProt P08138).
Test [2] addresses sortilin luminal domain (LD).
Test [3] addresses SorCS2 luminal domain (LD).

As usually defined, the Kd is the constant that tells how readily two partners part at equilibrium. Low readings indicate higher affinity, high ones lower affinity. In general, koff refers to the rate constant with which the complex falls apart. Low values mean a long-lived complex, high ones a short-lived complex. What is called kon is a measure of how fast the partners come together. Lower therefore signals slow association.

Chain of p75NTR extracellular domain (p75NTR ECD) (P08138 29-250): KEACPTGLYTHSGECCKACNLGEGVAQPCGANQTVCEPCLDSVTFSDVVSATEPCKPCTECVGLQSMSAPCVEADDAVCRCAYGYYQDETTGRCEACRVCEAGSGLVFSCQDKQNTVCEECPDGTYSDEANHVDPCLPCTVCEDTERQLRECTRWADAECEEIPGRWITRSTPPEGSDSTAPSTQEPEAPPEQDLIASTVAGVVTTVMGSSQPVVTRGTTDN

As for “human proBDNF Val66, furin cleavage-resistant (FCR) (natural protein)”, the dissociation constant (Kd) came out at 2.42 nM in test [1], 2.9 nM in test [2] and 2.23 nM in test [3]. Moreover, the values for the koff in test [1], in test [2] and in test [3] were 0.00394 s⁻¹, 0.00746 s⁻¹ and 0.004 s⁻¹, respectively. In addition, the figures for the on-rate (kon) in test [1], in test [2] and in test [3] were 1.88e+06 M⁻¹ s⁻¹, 2.48e+06 M⁻¹ s⁻¹ and 1.79e+06 M⁻¹ s⁻¹, respectively.
Regarding “human proBDNF Met66, furin cleavage-resistant (FCR) (natural protein)”, the Kd in test [1] is 2.31 nM; in test [2], 3.83 nM; in test [3] it was 2.23 nM. For the same substance, the off-rate (koff) in test [1] stood at 0.00325 s⁻¹; in test [2], 0.00504 s⁻¹; in test [3], 0.00453 s⁻¹. Further, the on-rate (kon) in test [1] stood at 1.55e+06 M⁻¹ s⁻¹; in test [2], 1.56e+06 M⁻¹ s⁻¹; in test [3], 2.14e+06 M⁻¹ s⁻¹.
On to “brain-derived neurotrophic factor (BDNF) (ligand)”, for which, in test [1], the dissociation constant (Kd) amounted to 0.62 nM, the off-rate (koff) came out at 0.00251 s⁻¹ and the on-rate (kon) worked out at 4.44e+06 M⁻¹ s⁻¹. In test [2], the Kd worked out at 6.44 nM, the off-rate constant (koff) was found to be 0.0217 s⁻¹ and the kon is 3.8e+06 M⁻¹ s⁻¹.

The record behind these values is paper PMC4773404.
